Data: patent US9012420B2, “Aptamer for chymase, and use thereof” (Ribomic Inc., priority 2009, dated 2015)
Oligonucleotides are written 5' to 3', each unit as a sugar letter and its base; * is a phosphorothioate linkage, no mark a phosphodiester; rarer units and linkages stand in square brackets, end groups in braces. Plain capitals give the bases only. r = 2'-OH (RNA); f = 2'-fluoro

T1: chymase (Homo sapiens, UniProt P23946 P23946:22-247)
T1 sequence: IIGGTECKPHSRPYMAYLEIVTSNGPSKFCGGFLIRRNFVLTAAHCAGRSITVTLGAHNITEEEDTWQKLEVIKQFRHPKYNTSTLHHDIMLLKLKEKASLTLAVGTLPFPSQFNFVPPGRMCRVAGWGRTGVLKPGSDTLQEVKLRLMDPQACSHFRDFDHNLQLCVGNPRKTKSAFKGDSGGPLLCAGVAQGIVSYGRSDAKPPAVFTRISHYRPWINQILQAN

T2: chymase (recombinant, manufactured by SIGMA) (Homo sapiens, UniProt P23946)
T2 construct: purchased SIGMA; host or cells: yeast
T2 sequence (P23946 22-247): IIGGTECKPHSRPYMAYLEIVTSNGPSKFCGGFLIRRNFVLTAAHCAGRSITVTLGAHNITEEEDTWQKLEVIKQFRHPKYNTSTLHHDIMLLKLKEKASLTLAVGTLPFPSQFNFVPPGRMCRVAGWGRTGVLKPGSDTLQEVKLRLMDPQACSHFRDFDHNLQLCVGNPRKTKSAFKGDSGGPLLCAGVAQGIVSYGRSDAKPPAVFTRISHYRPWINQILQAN

T3: chymase (Homo sapiens, UniProt P23946)
T3 sequence (P23946 22-247): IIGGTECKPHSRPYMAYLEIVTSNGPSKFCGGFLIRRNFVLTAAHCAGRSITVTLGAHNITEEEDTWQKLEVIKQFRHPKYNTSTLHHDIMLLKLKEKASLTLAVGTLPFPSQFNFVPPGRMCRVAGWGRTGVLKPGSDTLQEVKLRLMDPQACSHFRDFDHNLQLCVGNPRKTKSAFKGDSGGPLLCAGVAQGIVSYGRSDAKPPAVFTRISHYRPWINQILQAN


Columns and labels:
chymase [1] = target: T1, chymase; experiment: inhibition; Suc-AAPF-MCA, 37 C, solution C; conditions: tags: recombinant, expressed in yeast, SIGMA
Description: Here, Suc is a protecting succinyl group, and MCA is a 4-methylcoumaryl-7-amide group; upon cleavage of the C-terminal side of phenylalanine, AMC (7-amino-4-methyl-coumarine) is released. By detecting the fluorescence of this AMC, the enzyme activity of chymase can be determined. The assay was performed using a 96-well plate (F16 Black Maxisorp Fluoronunc, manufactured by Nunc), with a reaction mixture volume of 100 μL, in solution C as a buffer solution. First, each nucleic acid was serially diluted to 0.0027-2 μM concentrations in solution C to obtain 50 μL solutions. After 10 μL of the 1 mM substrate prepared in solution C was added thereto, the plate was set to the microplate reader SpectraMax190 (manufactured by Molecular Devices Corporation), and incubated at 37° C. for 5 minutes. Separately, 0.05 μg (or 0.005 μg) of chymase (recombinant, manufactured by SIGMA) was diluted in solution C to obtain a 40 μL chymase solution, and incubated at 37° C. for 5 minutes. The chymase solution was added to the mixture of the nucleic acid and substrate to initiate an enzyme reaction. The final chymase concentration in the reaction mixture was 16.7 nM (or 1.67 nM), the final substrate concentration being 100 μM. The plate containing the reaction mixture was set to the microplate reader SpectraMax190 (manufactured by Molecular Devices Corporation), and examined for time-dependent changes in the fluorescence intensity at 37° C. for 5 minutes (or 30 minutes) (excitation wavelength 380 nm, detection wavelength 460 nm). A linear approximation of the increase in the fluorescence of the AMC released from the substrate by chymase activity was generated, and its slope was taken as the initial velocity […]. For control, samples were treated and analyzed in the same manner in two cases: use of a 30N or 40N (a nucleotide of 30 or 40 consecutive bases represented by N; N is A, G, C or T) nucleic acid pool (negative control), and use of chymostatin, a known chymotrypsin-like serine protease inhibitor (positive control). Taking the initial reaction velocity without the nucleic acid and inhibitor (V_0) as a 100% enzyme activity, the inhibitory rate of each test substance was calculated using the following equation: […]
The chymase inhibitory activity was measured in the same manner as in Example 3.

[2] = target: T2, chymase (recombinant, manufactured by SIGMA); experiment: Chymase inhibitory activity using synthetic substrate Suc-Ala-Ala-Pro-Phe-MCA; format: biochemical; conditions: Table 3; substrate 100 μM, solution C, 37° C.; mean value for 2 to 3 measurements
Description: A first method employs a synthetic substrate. A useful chymase substrate is Suc-Ala-Ala-Pro-Phe-MCA (4-methylcoumaryl-7-amide group) (manufactured by Peptide Institute, Inc.), which contains the 4-amino acid peptide “Ala-Ala-Pro-Phe”, a standard substrate for chymotrypsin-like proteases.
The assay is performed using a 96-well plate (F16 Black Maxisorp Fluoronunc, manufactured by Nunc), with a reaction mixture volume of 100 μL, in a buffer solution (solution C; see Example 2 below). First, each nucleic acid is prepared in solution C to obtain 50 μL solutions. After 10 μL of the 1 mM substrate prepared in solution C is added, the plate is set to the microplate reader SpectraMax190 (manufactured by Molecular Devices Corporation), and incubated at 37° C. for 5 minutes. Separately, 0.05 μg of chymase (recombinant, manufactured by SIGMA) is diluted in solution C, and 40 μL of this dilution is incubated at 37° C. for 5 minutes. The chymase solution is added to the mixture of the nucleic acid and substrate to initiate an enzyme reaction. The plate containing the reaction mixture is set to the microplate reader SpectraMax190 (manufactured by Molecular Devices Corporation), and examined for time-dependent changes in the fluorescence intensity at 37° C. for 5 minutes (excitation wavelength 380 nm, detection wavelength 460 nm). A linear approximation of the increase in the fluorescence of the AMC (7-amino-4-methylcoumarine) released from the substrate by chymase activity is generated, and its slope is taken as the initial reaction velocity. For control, samples are treated and analyzed in the same manner in two cases: use of a nucleic acid pool containing a random sequence of 30 or 40 nucleotides (negative control), and use of chymostatin, a known chymotrypsin-like serine protease inhibitor (positive control). Taking the initial reaction velocity without the nucleic acid and inhibitor as a 100% enzyme activity, the inhibitory rate for each test substance is calculated, and the inhibitor concentration required to cause a 50% inhibition of the enzyme activity (IC50) is determined.
Whether the nucleic acids shown by SEQ ID NO: 4-20, 22-34, and 38-48 inhibit the enzyme activity of chymase was determined as described below. The chymase substrate used was Suc-Ala-Ala-Pro-Phe-MCA (manufactured by Peptide Institute, Inc.), which contains the 4-amino-acid peptide Ala-Ala-Pro-Phe, a standard substrate for chymotrypsin-like proteases. Here, Suc is a protecting succinyl group, and MCA is a 4-methylcoumaryl-7-amide group; upon cleavage of the C-terminal side of phenylalanine, AMC (7-amino-4-methylcoumarine) is released. By detecting the fluorescence of this AMC, the enzyme activity of chymase can be determined. The assay was performed using a 96-well plate (F16 Black Maxisorp Fluoronunc, manufactured by Nunc), with a reaction mixture volume of 100 μL, in solution C as a buffer solution. First, each nucleic acid was serially diluted to 0.0027-2 μM concentrations in solution C to obtain 50 μL solutions. After 10 μL of the 1 mM substrate prepared in solution C was added thereto, the plate was set to the microplate reader SpectraMax190 (manufactured by Molecular Devices Corporation), and incubated at 37° C. for 5 minutes. Separately, 0.05 μg (or 0.005 μg) of chymase (recombinant, manufactured by SIGMA) was diluted in solution C to obtain a 40 μL chymase solution, and incubated at 37° C. for 5 minutes. The chymase solution was added to the mixture of the nucleic acid and substrate to initiate an enzyme reaction. The final chymase concentration in the reaction mixture was 16.7 nM (or 1.67 nM), the final substrate concentration being 100 μM. The plate containing the reaction mixture was set to the microplate reader SpectraMax190 (manufactured by Molecular Devices Corporation), and examined for time-dependent changes in the fluorescence intensity at 37° C. for 5 minutes (or 30 minutes) (excitation wavelength 380 nm, detection wavelength 460 nm). […]

chymase [3] = target: T3, chymase; experiment: Surface plasmon resonance (Biacore T100), aptamer immobilized on SA chip, chymase injected as analyte; format: binding; parameters: key: ++: a sequence that binds to chymase significantly more strongly than the negative control 40N; +: a sequence that binds to chymase equivalently compared with the negative control 40N; conditions: Table 1; about 1000 RU nucleic acid immobilized, chymase 0.2 μM analyte, running buffer solution A; compared with 40N
Description: Binding strength is measured using Biacore T100 (manufactured by GE Healthcare). In a method of measurement, the aptamer is first immobilized onto a sensor chip, the amount immobilized being about 1000 RU. 20 μL of a chymase solution for analyte, prepared at 0.2 μM, is injected, and the binding of chymase to the aptamer is detected. An RNA comprising a random nucleotide sequence of 30 or 40 nucleotides is used as a negative control.
The binding activities against chymase of the nucleic acids shown by SEQ ID NO: 4-20 and 22-34 were determined by the surface plasmon resonance method using Biacore T100 (manufactured by GE Healthcare). The sensor chip used was the SA chip, which had streptavidin immobilized thereon. Bound thereto was about 1500 RU of a 16-nucleotide Poly dT with biotin bound to the 5′ end thereof. […] 20 μL of chymase for analyte, prepared at 0.2 μM, was injected. Solution A was used as a running buffer.
The binding activities against chymase of the nucleic acids shown by SEQ ID NO: 38-48 were evaluated by the surface plasmon resonance method. In the evaluations for SEQ ID NO: 38-48, measurements were taken in the same manner as Example 1. Solution C was used as a running buffer.

Molecule | IC50 (chymase [1]) [nM] | IC50 [2] [nM] | Binding activity as determined using Biacore (chymase [3])
GGGUUAGAUAGAGUUAAAAACCC (ssRNA, 2'-F U and C; 2'-OMe 2,3,7,8,10,13,16-20; PS 6-7; 5' and 3' idT) [56(41)] | 53 | – | –
15 (nucleic acid, aptamer) rGrGrGrAfCrGrGfUrArGrGrArAfUfUfCfCfCrArGrArArArAfUrArArAfUfUfCfCrGrArArGrArArArAfCrArAfCrArAfUfUfUfUfUrGfCrArArAfCrAfUrArGrArArGrArGfCrGrGfCfCrGfC | – | 285 ± 21 | ++
GGGTTAGAUAGAGTUAAAAACCC (mixed, 2'-F U; 2'-OMe 1-3,7,8,10,16-20; DNA T4,T5,G13,T14,C21-C23; 5' and 3' idT) [72(3)] | 50 | – | –
GGGUUAGAUAGAGUUAAAAACCC (ssRNA, 2'-F U and C; 2'-OMe 1-3,7,8,10,16,17,19,20) [56(20)] | 102 | – | –
GGGUUAGAUAGAGUUAAAAACCC (ssRNA, 2'-F U and C; 2'-OMe 7,8,10; 5' and 3' idT) [56(25)] | 70 | – | –
10 (nucleic acid, aptamer) rGrGrGrAfCrGrGfUrArGrGrArAfUfUfCfCrGfCfCrGfCfCfUrArArArArArAfCrGrAfCrGrAfUrAfUfUrAfCrArGrArArAfCrGfUfCrArArAfUrAfCrAfUrArGrArArGrArGfCrGrGfCfCrGfC | – | > 500 | ++
12 (nucleic acid, aptamer) rGrGrGrAfCrGrGfUrArGrGrArAfUfUfCrGfCfCrGfUfCrArAfCrGfUfUrAfCrAfUrArAfUrGfUrAfUrAfUrAfCfCrArGrGrGfUrArAfCfUrArArAfCrAfUrArGrArArGrArGfCrGrGfCfCrGfC | – | 128 ± 23 | ++
9 (nucleic acid) rGrGrGrAfCrGrGfUrArGrGrArAfUfUfCfCfCrGrArArArArGfCrArAfCrArArGfCfUfUrGfCfUrArArArAfUrGrAfUfUfCfCrGrArArArArArAfCrAfCrAfUrArGrArArGrArGfCrGrGfCfCrGfC | – | 273 ± 69 | ++
GGGUUAGAUAGAGUUAAAAACCC (mixed, 2'-F U and C; 2'-OMe 1-3,7,10,13,16-20; DNA A6; 5' and 3' idT) [56(49)] | 69 | – | –
GGGUUAGAUAGAGUUAAAAACCC (ssRNA, 2'-F U and C; 2'-OMe 1-3,10,13,16-20; PS 7-8; 5' and 3' idT) [56(36)] | 97 | – | –
GGGTTAGAUAGAGTUAAAAACCC (mixed, 2'-F U; 2'-OMe 1-3,7,8,10,13,17-20; DNA T4,T5,T14,A16,C21-C23; 5' and 3' idT) [72(4)] | 65 | – | –
11 (nucleic acid, aptamer) rGrGrGrAfCrGrGfUrArGrGrArAfUfUfCfCfCrGrAfCrAfCrGrArArAfUrGfUrGfUrGrAfUfUrArAfUfUfCfCrGrArAfCrArAfCrArArArGfUrArAfCrAfUrArGrArArGrArGfCrGrGfCfCrGfC | – | 145 ± 36 | ++
GGGUUAGAUAGAGUUAAAAACCC (mixed, 2'-F U and C; 2'-OMe 1-3,10,13,16-20; DNA G7,A8; 5' and 3' idT) [56(52)] | 52 | – | –
8 (nucleic acid, aptamer) rGrGrGrAfCrGrGfUrArGrGrArAfUfUfCfUrAfCrGrGfUfCfUrGfUrGfUrGrArArAfUfUrGrArArAfCrAfCrAfCrArArArGrArAfCrArAfUrArArAfCrAfUrArGrArArGrArGfCrGrGfCfCrGfC | – | 453 ± 463 | ++
GGGUUAGAUAGAGUUAAAAACCC (ssRNA, 2'-F U and C; 2'-OMe 1-3,10,13,16-20; PS 6-7,7-8; 5' and 3' idT) [56(37)] | 46 | – | –
GGGUUAGAUAGAGUUAAAAACCC (ssRNA, 2'-F U and C; 2'-OMe 1-3,19,20; 5' and 3' idT) [56(24)] | 38 | – | –
GGGUUAGAUAGAGUUAAAAACCC (ssRNA, 2'-F U and C; 2'-OMe 2,3,7,8,10,13,16-20; 5' and 3' idT) [56(40)] | 51 | – | –
GGGUUAGAUAGAGUUAAAAACCC (ssRNA, 2'-F U and C; 2'-OMe 2,3,7,8,10,13,16-20; 5' PEG 40 kDa; 3' idT) [56(39)] | 86 | – | –
